Source: the nanobody polyreactivity screen of Harvey et al. (2022)

Assay: yeast display, Sf9 membrane polyspecificity reagent, FACS + sequencing; frameworks hold sequencing errors
Procedure, shortened: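 In a synthetic yeast display library (Saccharomyces cerevisiae BJ5465), nanobody expression was induced with galactose for 36–48 hours. FACS gates were set low and high (top ~1%) using anti-HA fluorescence for expression and streptavidin fluorescence for binding of the Sf9 membrane reagent. Each polyreactivity label is drawn from the gate of origin.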

Row | Sequence | polyreactivity (PSR sort gate)
1 | QVQLVESGGGLVQAGGSLRLSCAASGSNFSYYTMGWYRQAPGKERELVAAISTSGGSTYYADSVKGRFTISRDNAKNTVYLQMNSLKPEDTAVYYCAARYGRYYKYNYWGQGTQVTVSS | high polyreactivity
2 | QVQLVESGGGLVQAGGRLRLSCAASGLTFGRYAMGWYRQAPGKERELVAVINGSGGNTYYADSVKGRFTISRDNAKNTVYLQMNSLKPEDTAVYYCAARRTVQYTLYYYPDYNYWGQGTQVTVSS | low polyreactivity
3 | QVQLVESGGGLVQAGGSLRLSCAASGFIFKKYAMGWYRQAPGKERELVAAISGSSTRTYYADSVKGRFTISRDNAKNTVYLQMNSLKPEDTAVYYCAAYYGVGFDYWGQGTQVTVSS | high polyreactivity
4 | QVQFVESGGALVQAGGSLRLSCAASGSTFQGYAMGWYRQAPGKETELVAAISRSGGRTYYADSVTGRFTISRDNAKNTVYLQMISLKPEDTAVYYCAAEGHELTDGDSWGQGTQVTVSS | low polyreactivity
5 | QVQLVESGGGLVQAGGSLRLSCAASGSTFYRYTMGWYRQAPGKERELVAAITGSGDSTYYADSVKGRFTISRDNAKNTVYLQMNSLKPEDTAVYYCAAANSFYYIATGEYDYWGQGTQVNVSS | high polyreactivity
6 | QVQLVESGGGLVQAGGSLRLSCAASGSLFYNNAKGWYRQAPGKERELVAAIRSTGTRTYYADSVKGRFTISRDTAKNTVYLQMNSLKPEDTAVYYCAVGDYGLWSYDYWGQGSQVTVSS | low polyreactivity
7 | QVQLVESGGGLVQAGGSLRLSSAASGRTFHRNAMGWYRQAPGKERELVAAITGDGRTNYADSVKGRFTISRDNAKNTVYLQMNSLKPEDTAVYYCAARFSYRSYDYWGQGTQVTVSS | low polyreactivity
8 | QVQLVESGGGLVQAGGSLRLSCAASGRTLADNAMGWYRQAPGKERELVAAITFSGDTTYYADSVKGRFTISRDNAKNTVYLQMNSLKPEDTAVYYCAAESSDPRAYDYWGQGTQVTVSS | low polyreactivity
9 | QVQLVESGGGLVQAGGSLRLSCAASGRIFGYYAMGWYRQAPGKERELVAAITSGGRTNYADSVKGRFTISRDNAKNTVYLQMNSLKPEDTAVYYCAKEYPRYSSPYDYWGQGTQVTVSS | low polyreactivity
10 | QVQLVESGGGLVQAGGILRLSCAASGRIFLTYAMGWYRQAPGKERELVAAIRSRSGTTYYADSVKGRFTISRDNAKNTVYLQMNSMKPEDTAVYYCAAGGKSRSYYWGQGTQVTVSS | high polyreactivity
11 | QDQLVESVGGLVQAGGSLRLIFAASGSILTFYAMGWYRQAPGKERELVAAITWRGCSTYYADSVKGRFTISRDNEKNTVYLQMNSLKPEDTAVYYCAAERYGPRYDYWGQGTQVTLSS | high polyreactivity
12 | QVQLVESGGGLVQAGGSLRLSCAASGSIFYGNAMGWYRQAPGKERELVAAISGSGGRTYYADSVKGRFTISRDNAKNTVYLQMISLKTEDTAVYYCAASAPGGQDDYWGQGTQVTVSS | high polyreactivity
13 | QVQLGESGGGLVQAGGSLRLSCAASGFTFDVNAMGWYRQATGKERELFAGITTSDGSTYYADSVKGRFTISRDNAKNTVYLQMNSLQPEDTAVYYCAAAITWYQLYQRSGGDYWGQGTQVTVSS | low polyreactivity
14 | QVQLVESGGGLVQAGGSLRLSCAASGFIFRAYVMGWYRQAPGKERELVAAISYRGGSTNYADSVKGRFTISRDTAKNTVYLHMNSLKPEDTAVYYCAADQVHKREYDYWGQGTQVTVSS | low polyreactivity
15 | QVQLVESGGGLVQAGGSLRLSCAASGSTFNYYTMGWYRQEPGKETELVAAISGRVSITYYADSVKGRFTISRDNAKNTVYLQMISLKPEDTAVYYCAAGPGYVRYPRSGVWYVTLYDYWGQGSQVTVSS | high polyreactivity
16 | QVQLVESGGGLVQAGGSLRLSCAASGRIFTWNAMGWYRQAPGKERDLVARISSGTRTNYADSVKGRFTISRDNAKNTVYLQMNSLKPEDTAVYYCAAQSRPPFVKQYWWQRDYWGQGTQVTVSS | high polyreactivity
17 | QVQLVESGGGLVQAGGSLRLSCAASGSTFWIYAMGWYIQAPGTERELVAAITLRSGSTYYADSVKGRFTISRDNAKNTVYLQMISLKPEDTAVYYCATDSWGVDRPNYNYWGQGTQVTVSS | low polyreactivity
18 | QVQLVESGGGLVQAGGSLRLSCAASGRTFDYYSMGWYRQAPGTERELVAAISSSGGRTYYADSVKGRFTISRDNAKNTVYLQMNSLKPEDTAVYYCNAVVSRNYEYWGQGTQVTVSS | high polyreactivity
19 | QVQLVESGGGLVQAGGSLRLICAASGRTFATYAMGWYRQAPGKERELVAAISNSGGRTNYADSVKGRFTISRDNAKNTVYLLMNSLKPEDTAVFYCATKAYTSGRYYWGQGTQVTVSS | high polyreactivity
20 | QVQLGESGGGLVQAGGSLRLSCAASGLTLYLYTMGWYREAPGKEMELVASIDSGTSTKYADSVKGRFTISRDNAKNTVYLQMNSLKPEDTAVYYCAAGVWVTRYFRYYYWGQGTLVTVSS | low polyreactivity
21 | QVQLVDSGGGLVQAGGSLRLSSAASGRTLVNYAMGCYRQAPGKERELVAAISYSGGSTYYADSVKGRFTISRDNAKNTVYLQMNSLKPEDTAVYYCAAYYYQRYDYWGQGTQVTVSS | high polyreactivity

Row | Sequence | polyreactivity (PSR sort gate)
22 | QVQLVESGGGLVQAGGSLRLSCAASGRNYGNAMGWYRQAPGKERELVAAISAGGGRTYYADSVKGRFTISRDNAKNTVYLQMNSLKPEDTAVYYCAADTTLQAFIRYRPIGSYDSWGQGTQVTVSS | low polyreactivity
23 | QVHLVESGGGLVQAGGSLRLSCAASGFIFYSNAMGWYRQAPGKERELVAAISSGGGSTRYADSVKGRFTISRDNAKNTVYLQMNSLKPQDTAVYYCAAREGYTKFRSTRYYYWGQGTQVTVSS | high polyreactivity
24 | QVQLVESGGGLVQAGGSLRLSCAASGSIFYRYAMGWYRQAPGKERELVASISKSGGSTYYADSVKGRFTISRDNAKNTVYLQMNSLKPEDTAVYYCAKKPRGTVYRFDYWGQGTQVTVSS | high polyreactivity
25 | QLQLVESGGGLDQAGGSLRLRCASSARIFSGYAIGWYIKAPGKERELVAAITSRSGSTYYADSVKGRFTISRDNAKNSVYFQMNSLKPEDTAVYYCAAEYVRFYWYTSDYWGQGTQVTVSS | low polyreactivity
26 | QVQLVESGGGLVQAGGSLRLSCAASGSTFLTYAMGWYRQAPGKERELVASITSTGRTYADSVKGRFTISRDNAKNTVYLQMNSLKPEDTAVYYCNADVTAFRRSFLRKYYSYDSWGQGTQVTVSS | low polyreactivity
27 | QVQLVESGGGLVQAGGSLRLSCAASGSTFDTNAMGWYRQAPGKDRELVAAITSGGNTYADSVKGRFTISRDNAKNTVYLQMNSLKPEDTAVYYCAAEDVYTGWYDYWGQGTQVTVSS | low polyreactivity
28 | QVQLVESGGGLVQAGGSLRLSCAASGITLARNAMGWYRQAPGKERELVASITWSGGTTYYADSVKGRFTISRDNAKNTVYLQMISLKPEDTAVYYCAASAKLHYYRTYRYNYWGQGTQVSVSS | high polyreactivity
29 | QVPLVESGGGLVQAGGSLRLSCAPSGSTYYFYTMGWYIQAPGKERELVAAIRDSGSSTYYADSVKGRFTISRDNAKNTVYLQMNSLKPEDTAVYYCATGVDTYSLTVEHDSWGQGTQVTVSS | low polyreactivity
30 | QVQLVESGGGLVQAGGSLRLSCAASGSIFLFYTMGWYRQATGKERELVAAISYSGGNTYYADSVKGRFTISRDNATNTVYLQMNSLKPEDTAVYYCNVRTQWARYDYWRQGTQVTVSS | high polyreactivity
31 | QVQLVESGGGLVQAGGSLRLSCAASGRIFWYYAMGWYRQAPGKERELVAAINSGGNTNYADSVKGRFTISRDNAKNTVYLQMNSLKPEDTAVYYCNAGRRYDTYPGDYWGQGSQVTVSS | high polyreactivity
32 | QVQLVESGGGLVQAGGSLRLSCSASGSIFRRYAMGWYRQAPGKVRELVAVITTDGSTYYADSVKGRFTISRDNAKNTVYLQMHSLKPEDTAVYYCAAEDYVIGYSGYDYWGQGTQVTVSS | low polyreactivity
33 | QVQLVESGGGLVQAGGSLRLICAASGSIFKYYAMGLYRQAPGKERDLVAANRWSGGSTYYADSVKGRFTISRDNAKNTVYLQMNRLKPEDTAVYYCAAEYFNQNTRQGYDYWGQGTQVTVSS | low polyreactivity
34 | QVQLVESGGGLVQAGGSLRLSCAASGLIFYFNAIGWYRQAPGKERELVASITRTGSTNYADSVKGRFTISRDNAKNTVYLHMNRLKPEYTAVYYCSAPWTQILDYWGQGTQVTVSS | low polyreactivity
35 | QVQLVESGGGLVQAGGSLRLSCAASGSTFDYYAMGWSRQAPGKERELVAAITGTGGSTYYADSEKGRFTISRNNAKNTVYLQMNSLKPEDTAVYYCNRVSGTRRHTMDYWGQGTQVTVSS | low polyreactivity
36 | QVQLVESGGGLVQAGRSLRLSCAASGLTFVNYTMGCYRQAPGKEREFVAAITSSGGSSTYYADSVKGRFTHSRDNAKNTVYLQMNSLYPEDTAVYYCAAGFTLYVDIVILTVNTVDYWGQGTQVTVSS | low polyreactivity
37 | QVQLVESGGGLVQAGGSLRLICAASGGTFRYYTMVWYRQAPGKERELVAAITRGGRTYYADSVKGRFTISRDNAKNTVYIQMNSLKPEDTAVYYCAGVRPRSPVSYENDYWGQGTQVTVSS | high polyreactivity
38 | QVQIVESGGGLVQAGGSLRLSCAASGRIFGPYAMVWYRQAPGKERELVAAIRASSSSTYYADSVKGRFTISRDNAKNTVYLQMNSLKPEDTAVYYCAADWYYGYAWKYGYWGQVTQVTVSS | low polyreactivity
39 | QVQLVESGGGLVQAGGSLRLICAASGFIFRRYAMGWYRQSPGKERELVAAISSRGGSTYYADSVKGRFTISRDNAKNTVYLQMNSLKPEDTAVYYCAAYDAVTYPFDYWGQGTQVTVSS | high polyreactivity
40 | QVQLVESGGGLVQAGGSLRLSCAASGSTLVRNAMGWSRPAPGKERDLVAAITSSGGRTYYADSVKGRFTISRDTAKNTVYLQMNSLKPEDTAVYYCNRVSRYYLYDYWGQGTQVTVSS | high polyreactivity
41 | QVQLVESGGGLVQAGGSLRLSCAPSGSIYTPYAMGWYRPAPGKLRELVADISRSGSTNYADSVKGRFTISLDNAKKTVYLQMNSLKPEDTAVYYCNADFWWHWGTSYDYWGQGTQVTVSS | high polyreactivity
